Data set [1] deals with Cav1.2 (ICav1.2) in isolated adult mouse ventricular myocytes. In kind it is cell-based. Particulars: L-calchin 5 µM; preliminary; n=7/N=2.
In data set [2] the test system is calcium channel in rabbit cardiac myocytes. To be noted: reduction of calcium channel amplitude; cited from earlier work. The text has this:
(§1) A common short peptide between two Prolines at position 42 and 47 (PTAMWP) was predicted as the binding site for Cas and FS2 by Kini and co-workers[49]. […] Similar to Cas, block by L-calchin had no ef ...

For another data set, the system named is isolated rat hearts. Particulars: cited from earlier work.
From the text: as §1

A further data set has as its system Cav1.2 and Cav1.3. To be noted: cited from earlier work. The text has this: Despite the importance of dissecting the physiopathological roles of Cav1.2 and Cav1.3 channels in cardiac myocytes and neuronal cells, no selective pharmacological tool is currently available. […] Both distinct and complementary functions for Cav1.2 and Cav1.3 have been proposed in the central nervous system. For example, Cav1.2 is involved in hippocampal firing, spatial memory and LTP[52], as well as in the myelinisation process.

For data set [3], the system named is SAN myocytes from Wild-Type mice. The data set is described as follows: Spontaneous action potentials, perforated patch-clamp, SAN pacemaker myocytes. In kind it is cell-based, mouse. Particulars: nifedipine (in Table 1 only 3 µM together with Cas). Here is the method:
(§2) Hearts from Wild-Type and Cav1.3^−/− mice were removed under general anesthesia consisting of 0.01 mg/g xylazine (2% Rompun; Bayer AG) and 0.1 mg/g ketamine (Imalgène;Merial) and immersed in a pre-warmed (36 °C) Tyrode solution containing (mM): 140 NaCl, 5.4 KCl, 1 MgCl2, 1.8 CaCl2, 5.5 D-glucose, and 5 Hepes (adjusted to pH 7.4 with NaOH). […] SAN tissue was excised and transferred into a low-Ca^2+ solution containing (mM): 140 NaCl, 5.4 KCl, 0.5 MgCl2, 0.2 CaCl2, 1.2 KH2PO4, 50 taurine, 5.5 D-glucose, 1 mg/mL BSA, and 5 Hepes–NaOH (adjusted to pH 6.9 with NaOH) for 5 min. Then, enzymatic digestion was carried out for 20-25 min at 36 °C in the low-Ca^2+ solution containing LiberaseTH Research Grade (0.15 mg/mL; Roche, Mannheim, Germany) and elastase (0.5 mg/mL; Worthington, Lakewood, NJ, USA). Digestion was stopped by washing the SAN in a “Kraftbrühe” (KB) medium containing (mM) 100 K-glutamate, 10 K-aspartate, 25 KCl, 10 KH2PO4, 2 MgSO4, 20 taurine, 5 creatine, 0.5 EGTA, 20 D-glucose, 5 Hepes, and 1 mg/mL BSA (adjusted to pH 7.2 with KOH). Single SAN cells were then dissociated from the SAN tissue by manual agitation using a flame-forged Pasteur’s pipette. To recover the automaticity of the SAN cells, Ca^2+ was gradually reintroduced in the cell’s storage solution to a final concentration of 1.8 mM. SAN cells were then left to rest for 1 h before recordings.
(§3) For patch-clamp recordings of SAN myocytes, cells were harvested in custom-made chambers with glass bottoms for cell attachment. Cells were then super-fused with Tyrode’s solution warmed at 36 °C before recording. Action potentials and ionic currents were recorded using an Axon multi-clamp patch-clamp 700B amplifier. Voltage-gated L-type Ca^2+ currents (ICaL) were recorded using standard whole cell patch-clamp configuration. For recording ICaL, we used an extracellular recording solution contained (mM): 135 tetraethylammonium chloride (TEA-Cl), 10 4-aminopyridine (4-AP), 1 MgCl2, 0.03 tetrodotoxin (TTX), 1 g/L Glucose, 2 CaCl2, 10 Hepes, (adjusted to pH = 7.2 with TEAOH). […] Pacemaker activity was recorded by the perforated patch-clamp technique using escin (40 µg/ml). For recording cell automaticity glass pipettes were filled with the intracellular solution contained (mM): 80 K-Aspartate, 50 KCl, 1 MgCl2, 5 HEPES, 2 CaCl2, 5 EGTA, 3 ATP-Na+ salt; pH was adjusted to 7.2 with KOH. Escin was dissolved in sterile H2O and added to the intracellular solution right before each experiment.
We used an extracellular recording solution (Tyrode’s based) contained (mM): 140 NaCl, 5.4 KCl, 1 MgCl2, 1.8 CaCl2, 5 HEPES, 5.5 D-Glucose; pH was set to 7.4 with NaOH. AP parameters have been calculated as reported in Baudot et al.[10]. Data were analyzed using pCLAMP9 (Molecular Devices) and GraphPad Prism (GraphPad) software.
(§4) In all experiments of cellular electrophysiology, we employed synthetized analog of Cas, commercially available at Latoxan (ID: L8109). The native peptide was purified from the venom of Dendroaspis polylepis purchased from Latoxan, as previoulsly described. The pure peptide was obtained after gel filtration, cation exchange and C18 reversed phase chromatography. Its measured molecular mass (7036.26 Da average) was in accordance with the mass calculated from sequence data (7036.22 Da).
For orientation: Patch clamp records ionic current or voltage across a cell membrane.

Data set [4] concerns total ICaL (ICav1.2+ICav1.3) in SAN myocytes from wild-type mice. The data set is described as follows: ICaL, patch clamp, SAN myocytes from wild-type mice. In kind it is cell-based, mouse. Particulars: nifedipine 3 µM after Cas 1 µM; holding −55 mV. As to the method:
as §2, §3, §4

Data set [5] deals with native mouse Cav1.2 L-type calcium channel in cardiac myocytes (mouse (endogenous in cardiac myocytes)) (UniProt Q01815).
native mouse Cav1.2 L-type calcium channel in cardiac myocytes (mouse (endogenous in cardiac myocytes)), sequence (Q01815 whole entry): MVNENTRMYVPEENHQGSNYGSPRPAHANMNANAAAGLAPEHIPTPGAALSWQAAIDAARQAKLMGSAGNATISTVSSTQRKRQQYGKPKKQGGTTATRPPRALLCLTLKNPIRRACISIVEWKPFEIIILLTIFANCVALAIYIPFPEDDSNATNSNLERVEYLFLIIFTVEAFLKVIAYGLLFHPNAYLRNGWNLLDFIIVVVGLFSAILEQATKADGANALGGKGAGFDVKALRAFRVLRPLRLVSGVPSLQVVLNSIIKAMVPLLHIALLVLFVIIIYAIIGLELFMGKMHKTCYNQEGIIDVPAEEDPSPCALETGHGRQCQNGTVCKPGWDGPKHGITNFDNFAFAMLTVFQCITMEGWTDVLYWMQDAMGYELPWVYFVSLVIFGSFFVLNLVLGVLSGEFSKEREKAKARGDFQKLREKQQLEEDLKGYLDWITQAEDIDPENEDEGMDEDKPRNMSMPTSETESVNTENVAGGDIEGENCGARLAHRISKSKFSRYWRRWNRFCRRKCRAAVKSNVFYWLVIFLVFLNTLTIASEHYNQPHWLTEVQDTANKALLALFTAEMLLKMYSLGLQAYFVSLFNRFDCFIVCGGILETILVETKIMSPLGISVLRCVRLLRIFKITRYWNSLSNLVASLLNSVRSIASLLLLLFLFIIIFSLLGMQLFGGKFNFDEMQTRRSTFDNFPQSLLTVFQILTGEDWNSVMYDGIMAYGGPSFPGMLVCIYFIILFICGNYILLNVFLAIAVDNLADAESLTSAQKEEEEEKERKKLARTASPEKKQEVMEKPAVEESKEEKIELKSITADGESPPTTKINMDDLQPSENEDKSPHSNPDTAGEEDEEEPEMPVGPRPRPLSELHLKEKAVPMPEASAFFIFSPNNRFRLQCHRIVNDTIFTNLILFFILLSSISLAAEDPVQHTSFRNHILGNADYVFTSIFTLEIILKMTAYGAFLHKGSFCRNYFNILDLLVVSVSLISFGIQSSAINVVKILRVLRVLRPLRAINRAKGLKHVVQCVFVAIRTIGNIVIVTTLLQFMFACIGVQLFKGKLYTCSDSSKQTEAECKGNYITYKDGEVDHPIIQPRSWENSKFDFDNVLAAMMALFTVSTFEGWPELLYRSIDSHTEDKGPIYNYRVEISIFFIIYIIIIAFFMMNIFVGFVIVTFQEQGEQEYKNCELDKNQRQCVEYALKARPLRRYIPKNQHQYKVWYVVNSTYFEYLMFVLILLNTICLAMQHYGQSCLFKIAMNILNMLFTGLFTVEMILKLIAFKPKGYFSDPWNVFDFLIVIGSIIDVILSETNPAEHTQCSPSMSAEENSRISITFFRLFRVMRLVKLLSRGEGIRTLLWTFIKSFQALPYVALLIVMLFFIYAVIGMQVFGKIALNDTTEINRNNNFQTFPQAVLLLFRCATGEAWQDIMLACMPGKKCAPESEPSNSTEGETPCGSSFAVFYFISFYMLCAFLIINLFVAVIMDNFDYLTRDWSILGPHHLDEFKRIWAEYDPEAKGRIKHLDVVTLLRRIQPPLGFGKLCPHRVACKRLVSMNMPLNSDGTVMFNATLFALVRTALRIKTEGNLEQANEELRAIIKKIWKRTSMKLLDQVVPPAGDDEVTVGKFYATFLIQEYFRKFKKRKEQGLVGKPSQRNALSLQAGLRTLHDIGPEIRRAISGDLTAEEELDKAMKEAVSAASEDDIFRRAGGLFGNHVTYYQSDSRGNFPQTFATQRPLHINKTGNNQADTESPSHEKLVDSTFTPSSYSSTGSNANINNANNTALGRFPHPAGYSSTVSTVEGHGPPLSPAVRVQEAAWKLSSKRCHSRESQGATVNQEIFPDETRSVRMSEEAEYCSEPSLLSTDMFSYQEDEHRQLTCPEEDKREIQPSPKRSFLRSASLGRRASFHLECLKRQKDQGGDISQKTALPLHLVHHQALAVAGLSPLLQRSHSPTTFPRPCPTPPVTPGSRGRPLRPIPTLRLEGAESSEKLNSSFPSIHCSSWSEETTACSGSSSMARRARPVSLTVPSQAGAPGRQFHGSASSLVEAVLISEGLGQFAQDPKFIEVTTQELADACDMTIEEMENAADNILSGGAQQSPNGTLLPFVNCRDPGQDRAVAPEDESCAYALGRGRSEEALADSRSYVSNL
Data set [6] shares this target. The source holds these as a separate data set.
The target of data set [7] is recombinant Cav1.2 (α1C) L-type calcium channel, Cav1.2-GFP (UniProt Q13936).
recombinant Cav1.2 (α1C) L-type calcium channel, Cav1.2-GFP, sequence (Q13936 other isoform, or with tags, fused parts or gaps): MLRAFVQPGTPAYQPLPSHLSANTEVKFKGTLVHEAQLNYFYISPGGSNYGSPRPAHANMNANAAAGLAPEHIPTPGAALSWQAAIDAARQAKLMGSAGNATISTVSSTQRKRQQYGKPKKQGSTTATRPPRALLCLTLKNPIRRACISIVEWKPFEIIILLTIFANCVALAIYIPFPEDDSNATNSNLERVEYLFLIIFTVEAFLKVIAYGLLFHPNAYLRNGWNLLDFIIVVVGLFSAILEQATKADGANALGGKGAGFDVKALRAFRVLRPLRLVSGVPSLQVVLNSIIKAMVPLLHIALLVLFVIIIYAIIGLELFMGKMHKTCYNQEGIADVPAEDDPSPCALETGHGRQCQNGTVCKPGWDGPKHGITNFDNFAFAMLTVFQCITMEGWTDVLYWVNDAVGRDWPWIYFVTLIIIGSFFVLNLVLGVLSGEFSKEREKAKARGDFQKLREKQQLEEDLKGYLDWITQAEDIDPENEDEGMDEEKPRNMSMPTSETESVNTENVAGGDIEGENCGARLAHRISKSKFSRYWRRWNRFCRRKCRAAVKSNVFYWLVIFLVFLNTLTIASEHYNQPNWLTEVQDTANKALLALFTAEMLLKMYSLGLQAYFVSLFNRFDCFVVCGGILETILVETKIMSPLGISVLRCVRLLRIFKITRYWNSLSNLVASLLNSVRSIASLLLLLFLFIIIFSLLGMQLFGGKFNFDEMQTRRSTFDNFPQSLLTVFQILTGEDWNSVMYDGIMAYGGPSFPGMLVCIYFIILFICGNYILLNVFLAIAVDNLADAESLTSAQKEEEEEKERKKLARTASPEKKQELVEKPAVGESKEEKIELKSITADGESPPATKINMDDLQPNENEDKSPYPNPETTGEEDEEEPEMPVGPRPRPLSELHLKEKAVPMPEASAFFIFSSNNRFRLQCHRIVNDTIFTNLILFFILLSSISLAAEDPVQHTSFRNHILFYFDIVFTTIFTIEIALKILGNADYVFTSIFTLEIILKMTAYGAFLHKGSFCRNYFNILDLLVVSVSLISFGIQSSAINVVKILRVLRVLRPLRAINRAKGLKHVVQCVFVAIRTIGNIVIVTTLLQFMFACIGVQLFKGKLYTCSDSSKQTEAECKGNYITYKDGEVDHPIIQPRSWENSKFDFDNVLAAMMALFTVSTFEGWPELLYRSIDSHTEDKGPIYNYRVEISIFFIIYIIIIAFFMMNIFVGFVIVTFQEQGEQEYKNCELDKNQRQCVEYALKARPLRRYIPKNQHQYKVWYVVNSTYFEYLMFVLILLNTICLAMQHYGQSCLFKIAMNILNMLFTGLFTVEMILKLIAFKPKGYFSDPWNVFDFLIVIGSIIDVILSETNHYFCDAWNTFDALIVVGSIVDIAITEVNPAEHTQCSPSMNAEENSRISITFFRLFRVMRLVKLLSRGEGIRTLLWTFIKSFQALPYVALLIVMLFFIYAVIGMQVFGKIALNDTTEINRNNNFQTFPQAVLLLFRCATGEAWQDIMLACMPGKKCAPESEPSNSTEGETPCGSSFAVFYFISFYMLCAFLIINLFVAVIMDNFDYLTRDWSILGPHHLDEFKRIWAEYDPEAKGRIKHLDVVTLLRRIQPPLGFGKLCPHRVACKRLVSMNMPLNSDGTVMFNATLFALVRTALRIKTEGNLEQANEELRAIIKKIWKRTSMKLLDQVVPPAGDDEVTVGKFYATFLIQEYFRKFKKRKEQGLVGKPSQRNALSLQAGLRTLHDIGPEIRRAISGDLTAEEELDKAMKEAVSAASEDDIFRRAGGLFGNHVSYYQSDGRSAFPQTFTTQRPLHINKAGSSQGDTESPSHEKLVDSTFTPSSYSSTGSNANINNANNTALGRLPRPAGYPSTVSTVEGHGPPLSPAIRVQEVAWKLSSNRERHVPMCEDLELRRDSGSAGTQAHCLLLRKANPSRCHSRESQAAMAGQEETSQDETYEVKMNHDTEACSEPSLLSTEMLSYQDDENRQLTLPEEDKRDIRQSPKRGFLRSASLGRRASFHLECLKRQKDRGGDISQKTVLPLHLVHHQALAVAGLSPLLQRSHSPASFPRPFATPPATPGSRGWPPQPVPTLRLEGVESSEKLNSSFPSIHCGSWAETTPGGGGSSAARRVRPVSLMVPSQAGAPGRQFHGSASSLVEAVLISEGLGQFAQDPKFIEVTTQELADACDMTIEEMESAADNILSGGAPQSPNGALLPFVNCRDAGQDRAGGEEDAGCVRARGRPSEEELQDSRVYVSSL
In data set [8] the target is native mouse Cav1.2 L-type calcium channel in cardiac myocytes (mouse (endogenous in cardiac myocytes)) (UniProt Q01815). The source holds these as a separate data set.

The text below walks through data of paper PMC10762068, “Selective blockade of Cav1.2 (α1C) versus Cav1.3 (α1D) L-type calcium channels by the black mamba toxin calciseptine” (Nature Communications, 2024).

For orientation: IC50 means the concentration that gives 50% inhibition. As for “PTAMWP [L-calchin, short peptide between two Prolines at position 42 and 47 (PTAMWP) of Cas and FS2]”, the “reduction of ICav1.2” value in data set [1] was “≈ 30%”. For the same molecule, the IC50 in [2] is ~5000 nM. Besides, the “effect on peak systolic pressure” value in the data set on isolated rat hearts is recorded as “reducing peak systolic pressure”. Also, the “effect on heart rate” value with isolated rat hearts (ex vivo) is reported as “had no effect on heart rate”.
For `COc1ccc(CCN(C)CCCC(C#N)(c2ccc(OC)c(OC)c2)C(C)C)cc1OC` (stereo not drawn) [Verapamil], the “selectivity between Cav1.2 and Cav1.3” value in the data set on Cav1.2 and Cav1.3 was “without significant selectivity”.
For `COC(=O)C1=C(C)NC(C)=C(C(=O)OC)C1c1ccccc1[N+](=O)[O-]` [nifedipine, reference compound], the “effect on pacemaker activity of SAN myocytes” value in data set [3] is “robustly slows pacemaker activity”. Also, the “block of residual ICaL (Cav1.3-mediated)” value in [4] is recorded as “totally blocked”.
On to `COc1ccc([C@@H]2Sc3ccccc3N(CCN(C)C)C(=O)[C@@H]2OC(C)=O)cc1` [Diltiazem], for which, in the data set with Cav1.2 and Cav1.3, the “selectivity between Cav1.2 and Cav1.3” value is on record as “without significant selectivity”.

B1: calciseptine, synthetized analog (Latoxan L8109) (peptide)
chain: RICYIHKASLPRATKTCVENTCYKMFIRTQREYISERGCGCPTAMWPYQTECCKGDRCNK
Turning to B1, in data set [5], the degree of inhibition of ICaL by 300 nM Cas, step to 0 mV from −60 mV, stimulation at 0.2 Hz turned out to be 62%; the degree of inhibition of ICaL by 300 nM Cas, step to 0 mV from −60 mV, stimulation at 1 Hz amounted to 63%; the degree of inhibition of ICaL by 300 nM Cas, step to 0 mV from −60 mV, stimulation at 5 Hz was 58%; the percent block of Cav1.2-mediated ICaL in Cav1.3−/− SAN myocytes, 300 nM Cas, step to 0 mV from a holding potential of −40 mV amounted to 68%. Further, in data set [5], the percent block of Cav1.2-mediated ICaL in Cav1.3−/− SAN myocytes, 300 nM Cas, step to 0 mV from a holding potential of −60 mV was 67%. In [6], the reduction of total ICaL (I (Cav1.2)+I (Cav1.3)) in wild-type mouse SAN myocytes, voltage clamp, 1 µM Cas is 45%. Further, in [7], the IC50 of inhibition of I (Cav1.2), whole-cell patch clamp on transfected HEK-293T cells (holding potential −60 mV, test 0 mV), dose-effect relationship was found to be 92 nM; the inhibition of I (Cav1.2) in averaged current-to-voltage relationships, 300 nM Cas, membrane voltages from −20 mV to +30 mV, transfected HEK-293T cells was found to be 60%; the percent inhibition of I (Cav1.2) in transfected HEK-293T cells, one-step protocol (−60 mV to 0 mV), Cas 100 nM to 1 µM (37% at 100 nM, 70% at 300 nM, 80% at 1 µM) is 80%.
For PTAMWP [L-calchin], the reduction of I (Cav1.2) in dissociated mouse ventricular myocytes by synthetic L-calchin (preliminary experiments; concentration not stated) in data set [8] was 30%.
